Measurements: patent US20130097734A1

Experiments:
Experiment in all cases: cell-based or functional assay
[1] = molecular target: AVR3a^KI effector protein of Phytophthora infestans (Phytophthora infestans) (UniProt Q572D3)
[2] = molecular target: T1, AVR3a homolog from Phytophthora palmivora designated as L3B (Phytophthora palmivora)
T1 sequence: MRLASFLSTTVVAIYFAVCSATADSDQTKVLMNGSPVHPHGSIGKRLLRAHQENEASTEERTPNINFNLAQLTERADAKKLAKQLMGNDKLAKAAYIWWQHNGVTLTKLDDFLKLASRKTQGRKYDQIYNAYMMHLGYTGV

[3] = molecular target: T2, AVR3a homolog from Phytophthora palmivora designated as L7B (Phytophthora palmivora)
T2 sequence: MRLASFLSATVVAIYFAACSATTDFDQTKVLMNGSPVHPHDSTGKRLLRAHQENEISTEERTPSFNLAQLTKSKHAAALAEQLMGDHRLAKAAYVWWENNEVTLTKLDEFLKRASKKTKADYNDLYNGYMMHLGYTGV

[4] = molecular target: T3, AVR3a homolog from Phytophthora palmivora designated as L6B (Phytophthora palmivora)
T3 sequence: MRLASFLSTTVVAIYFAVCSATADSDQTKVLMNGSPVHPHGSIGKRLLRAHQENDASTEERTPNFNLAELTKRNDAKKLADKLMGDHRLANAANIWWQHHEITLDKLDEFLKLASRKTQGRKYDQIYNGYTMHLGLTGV

B1: modified R3a protein corresponding to clone GS4 (protein)
chain: MEIGLAVGGAFLSSALNVLFDRLAPHGDLLNMFQKHKDHVKLLKKLEDILLGLQIVLSDAENKQASNRHVSQWFNKLQNAVDGAENLIEQVNYEALRLKVEGQHQNLAETSNQQVSDLNLCFSDDFFLNIKDKLEETIETLEVLEKQIGRLGLKEHFGSTKQETRTPSTSLVDDSDIFGRQNDIEDLIDRLLSEDASGKKRTVVPIVGMGGLGKTTLAKAVYNDERVQIHFGLKAWFCVSEAFDAFRITKGLLQEIGSFDLKADDNLNQLQVKLKERLKGKKFLIVLDDVWNDNYNKWDELRNVFVQGDIGSKIIVTTRKESVALMMGNEQISMDNLSTESSWSLFKTHAFENMGPMGHPELEEVGKQIAAKCKGLPLALKTLAGMLRSKSEVEEWKRILRSEIWELPHNDILPALMLSYNDLPAHLKRCFSFCAIFPKDYPFRKEQVIHLWIANGLVPQEDVIIEDSGNQYFLELRSRSLFERVPNPSQGNTENLFLMHDLVNDLAQIASSKLCIRLEESQGSHMLEQSQHLSYSMGYGGEFEKLTPLYKLEQLRTLLPTCIDLPDCCHHLSKRVLHNILPRLTSLRALSLSCYEIVELPNDLFIKLKLLRFLDISRTEIKRLPDSICALYNLETLLLSSCYDLEELPLQMEKLINLRHLDISNTRPLKMPLHLSKLKSLQVLVGAKFLIGGLRMEDLGEVHNLYGSLSVVELQNVVDRREAVKAKMREKNHVDRLYLEWSGSSSADNSQTERDILDELRPHKNIKVVKITGYRGTNFPNWLADPLFLKLVKLSLRNCKNCYSLPALGQLPFLKFLSIREMHGITEVTEEFYGSWSSKKPFNCLEKLEFKDMPEWKQWDLLGSGEFPILEKLLIENCPELSLETVPIQLSSLKSFDVIGSPLVINFPLSILPTTLKRIKISDCQKLKLEQPTGEISMFLEELTLIKCDCIDDISPELLPRARKLWVQDWHNLTRFLIPTATETLDIWNCENVEILSVACGGTQMTSLTIAYCKKLKWLPERMQELLPSLKELHLSNCPEIESFPEGGLPFNLQQLAIRYCKKLVNGRKEWHLQRRLCLTALIIYHDGSDEEIVGGENWELPSSIQRLTIVNLKTLSSQHLKNLTSLQYLFIRGNLPQIQPMLEQGQCSHLTSLQSLQISSLQSLPESALPSSLSHLEISHCPNLQSLPESALPSSLSQLTINNCPNLQSLSESTLPSSLSQLEISFCPNLQYLPLKGMPSSLSELSIYKCPLLKPQLEFDKGEYWPNIAQFPTIKIDRECM
Work on B1 yielded a Cell death/HR intensity, pVnt1-R3aGS4, 1dpi [1] of 2, a Cell death/HR intensity, pVnt1-R3aGS4, 2dpi [1] of 4 and a Cell death/HR intensity, pVnt1-R3aGS4, 3dpi [1] of 4. It also gave a Cell death/HR intensity, pVnt1-R3aGS4, 1dpi [2] of 0, a Cell death/HR intensity, pVnt1-R3aGS4, 2dpi [2] of 2 and a Cell death/HR intensity, pVnt1-R3aGS4, 3dpi [2] of 3. For the same binder, the Cell death/HR intensity, pVnt1-R3aGS4, 1dpi [3] was 2, the Cell death/HR intensity, pVnt1-R3aGS4, 2dpi [3] was 2 and the Cell death/HR intensity, pVnt1-R3aGS4, 3dpi [3] was 2. It also gave a Cell death/HR intensity, pVnt1-R3aGS4, 1dpi [4] of 0, a Cell death/HR intensity, pVnt1-R3aGS4, 2dpi [4] of 0 and a Cell death/HR intensity, pVnt1-R3aGS4, 3dpi [4] of 0.
